From patent US20190225691A1 (SHANGHAI HENLIUS BIOTECH, published 2019)
Positions count from the first letter of the chain named. Names and notes keep the numbering of the source.

B1: PL3#7-19 deglyco1 mtIgG1 (antibody, V domains shown)
VH: QVQLVQSGAEVKKPGSSVKVSCKASGGTFSSYPISWVRQAPGQGLEWMGRIIPILGIANYAQKFQGRVTITADKSTSTAYMELSSLRSEDTAVYYCARSRDGYAFGAFDVWGQGTLVTVSS
VL: QSVVTQPPPVSGAPGQRVTISCTGSSSNIGGGYDVHWYQQLPGTAPKLLIYGNSNRPSGVPDRFSGSKSGTSASLAITGLQAEDEADYYCQTYDSSLSATVVFGGGTKLTVLG
notes: N297A mutant human IgG1; also called PL3#7-19 deglycol
B2: PL3#7-19 deglyco2 mtIgG1 (antibody, V domains shown)
VH: B1 VH
VL: B1 VL with N53Q, N55T
notes: N297A mutant human IgG1
B3: PL3#7-19 deglyco3 mtIgG1 (antibody, V domains shown)
VH: B1 VH
VL: B1 VL with N55Q
notes: N297A mutant human IgG1
B4: PL3#7-19 mtIgG1 (antibody, V domains shown)
VH: B1 VH
VL: B1 VL with N55T
modifications: Antibody was biotinylated (NHS-PEG4-biotin, sites not specified) for the Octet assay of Table 11.
notes: N297A mutant human IgG1; also called PL3#7-19 parental mtIgG1
B5: PL3#7-54 mtIgG1 (antibody, V domains shown)
VH: B1 VH with N59D, D101P, V110I
VL: B1 VL with G31Q, G52A, T100R
modifications: Antibody was biotinylated (NHS-PEG4-biotin, sites not specified) for the Octet assay of Table 11.
notes: N297A mutant human IgG1
B6: PL2#3 mtIgG1 (N297A) (antibody, V domains shown)
VH: EVQLVQSGGGLVKPGGSLRLSCAASGFTFSSYTMNWVRQAPGKGLEWVSSISSGSDYLYYADSVKGRFTISRDNAKNSLYLQMNSLRAEDTAVYYCARNELRWYPQAGAFDRWGQGTMVTVSS
VL: QSVVTQPPSMSAAPGQRVTISCSGSSSYIESSYVGWYQQLPGTAPRLLIYDDDMRPSGIPDRFSGSKSGTSATLAITGLQTGDEADYYCEIWRSGLGGVFGGGTKLTVLS
notes: N297A mutant of human IgG1 Fc backbone
B7: anti-PD-L1 ref-2 (IgG2) (antibody, V domains shown)
VH: EVQLVESGGGLVKPGGSLRLSCAASGFTFSSYGMSWVRQAPGKGLEWVATINSGGSNTYYPDSLKGRFTISRDNAKNSLYLQMNSLRAEDTAVYYCARHDGGAMDYWGQGTTVTVSS
VL: DIQMTQSPSSLSASVGDRVTITCRASESIYSYLAWYQQKPGKAPKLLVYNTKTLPEGVPSRFSGSGSGTDFTLTISSLQPEDFATYYCQHHYGTPPWTFGQGTRLEIK

Experiments:
[1] = target: T1, human PD-L1 on cells (PHA-activated human T cells); PD-L1-transfected CHO-S cells; A375 melanoma cells; … (human, UniProt Q9NZQ7 19-290); experiment: flow cytometry on PD-L1 transfected CHO-S cells, anti-human IgG Fc-FITC, MFI
T1 construct: whole, on cells; also called PD-L1 expressing T cells; PD-L1 expressing CHO-S cells
T1 sequence (Q9NZQ7 19-290): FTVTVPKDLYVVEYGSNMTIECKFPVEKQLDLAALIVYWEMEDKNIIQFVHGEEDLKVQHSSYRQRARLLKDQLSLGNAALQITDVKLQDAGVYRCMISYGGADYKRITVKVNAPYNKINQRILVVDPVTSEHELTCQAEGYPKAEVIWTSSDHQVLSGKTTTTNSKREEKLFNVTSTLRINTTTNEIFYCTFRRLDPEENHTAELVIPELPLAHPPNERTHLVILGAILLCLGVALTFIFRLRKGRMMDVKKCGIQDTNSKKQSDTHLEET
Description: Binding of tested de-glycosylated variants was assessed by incubating the PD-L1 expressing CHO-S cells (2E5 cells/well) with the serial-diluted antibodies in FACS buffer (PBS with 1% FBS) at 4° C. for 30 minutes. These cells were washed with flow buffer and then stained with anti-human IgG Fc-FITC (1:500×) at 4° C. for 30 minutes to detect antibody binding on the cell surface. Flow cytometric analyses were performed using CytoFlex (Beckman Coulter Inc.).

[2] = target: T2, human PD-L1 ECD-His (human, UniProt Q9NZQ7 19-238); experiment: BLI, ratio of KD to parental PL3#7-19
T2 construct: extracellular domain; Analyte in all SPR and BLI runs; also called hPD-L1_ECD-His; hPD-L1 ECD-His; not shown: His tag
T2 sequence (Q9NZQ7 19-238): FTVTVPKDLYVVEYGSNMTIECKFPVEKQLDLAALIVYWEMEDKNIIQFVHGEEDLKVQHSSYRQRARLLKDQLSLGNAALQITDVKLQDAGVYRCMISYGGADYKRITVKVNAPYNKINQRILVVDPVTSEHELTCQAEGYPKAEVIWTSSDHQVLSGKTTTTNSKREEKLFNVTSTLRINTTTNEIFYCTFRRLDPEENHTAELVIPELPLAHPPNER
Description: (§1) Briefly, black 96-well plate was prepared with columns containing 200 μL/well of reagents required for determination of affinity. In general, Octet anti-human-Fc sensors were first placed in wells containing 1×Kinetics Buffer (PBS, 0.1% BSA, 0.02% Tween-20, pH 7.4) for 180 seconds to establish a baseline. Sensors were then transferred to wells containing […] anti-PD-L1 variants for 600 seconds to load the anti-human-Fc tips. Sensors were then placed in fresh 1×Kinetics Buffer for 180 seconds to establish a baseline. Association was then measured by incubating the sensors for 3 minutes in wells containing hPD-L1-His followed by transferring to wells containing 1×Kinetics Buffer for 10 minutes to measure dissociation. Sensors were then regenerated by 3X5 second incubations in Regeneration Buffer (10 mM Glycine, pH 1.5) followed by a 5 second incubation in 1×Kinetics Buffer each time. Regeneration was repeated before measurement of each association/dissociation cycle. […] All data were analyzed with Octet Data Analysis Software v.9.0 and representative of two independent experiments performed in duplicate.
(§2) All the data are representative of two independent experiments performed in duplicate.

[3] = target: T2, human PD-L1 ECD-His; experiment: BLI Octet RED96, antibody on AHC anti-human-Fc sensor, hPD-L1-His analyte, 1:1 fit
Description: as §1, §2

[4] = target: T1, human PD-L1 on cells (PHA-activated …); experiment: flow cytometry on NCI-H292 human NSCLC cells, biotin-labeled anti-human IgG Fcγ and streptavidin-PE, MFI
[5] = target: T1, human PD-L1 on cells (PHA-activated …); experiment: flow cytometry on A375 human melanoma cells, biotin-labeled anti-human IgG Fcγ and streptavidin-PE, MFI
[6] = target: T3, mouse PD-L1 on B16-F10 melanoma cells (mouse, UniProt Q9EP73 19-290); experiment: flow cytometry on mouse PD-L1 expressing B16-F10 melanoma cells, FITC-labeled anti-human IgG Fcγ, MFI
T3 construct: whole, on cells
T3 sequence (Q9EP73 19-290): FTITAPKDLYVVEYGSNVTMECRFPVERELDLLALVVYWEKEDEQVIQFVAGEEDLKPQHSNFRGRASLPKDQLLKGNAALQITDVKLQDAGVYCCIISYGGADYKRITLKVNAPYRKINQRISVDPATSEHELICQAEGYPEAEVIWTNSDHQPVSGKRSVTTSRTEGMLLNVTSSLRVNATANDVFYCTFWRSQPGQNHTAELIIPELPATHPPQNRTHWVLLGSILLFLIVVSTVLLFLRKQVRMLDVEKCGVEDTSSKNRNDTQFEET

[7] = target: T2, human PD-L1 ECD-His; experiment: BLI Octet RED96, biotinylated antibody on SA sensor, hPD-L1-His analyte, 1:1 fit
Description: (§3) Briefly, black 96-well plate was prepared with columns containing 200 μL/well of reagents required for determination of affinity. In general, Octet SA sensors were first placed in wells containing 1×Kinetics Buffer (PBS, 0.1% BSA, 0.02% Tween-20, pH 7.4) for 180 seconds to establish a baseline. […] Sensors were then regenerated by 3×5 second incubations in Regeneration Buffer (10 mM Glycine, pH 1.5) followed by a 5 second incubation in 1×Kinetics Buffer each time. Regeneration was repeated before measurement of each association/dissociation cycle. Sensors were then placed in fresh 1×Kinetics Buffer for 180 seconds to establish a baseline. Association was then measured by incubating the sensors for 5 minutes in wells containing hPD-L1-His followed by transferring to wells containing 1×Kinetics Buffer for 10 minutes to measure dissociation. Kinetics (ka, kd, and […] were measured by global fitting four association/dissociation cycles of data obtained from 1:3 serial dilutions of hPD-L1-His from 38.28 nM to 1.42 nM (one association/dissociation cycle for one concentration) with a 1:1 Langmuir binding model. All data were analyzed with Octet Data Analysis Software v.9.0 and representative of two independent experiments performed in duplicate.
as §2

[8] = target: T2, human PD-L1 ECD-His; experiment: BLI, ratio of KD to ref-1
Description: as §3, §2

[9] = target: T4, recombinant cynomolgus monkey PD-L1_ECD Fc-fusion protein (Sino Biological Inc.) (cynomolgus monkey, UniProt G7PSE7 19-238); experiment: ELISA: cynomolgus monkey PD-L1_ECD/Fc coated (9 ng/well), peroxidase-labeled goat anti-human IgG F(ab)'2, TMB, OD450
T4 construct: Bought
T4 sequence (G7PSE7 entry or part of it limits assumed): as the sequence (Q9NZQ7 19-238) above, with A33T, A34S, S62N, R68Q, Q82R, F173L, T185A, T192I, H215L counted along it
Description: The recombinant cynomolgus monkey PD-L1_ECD Fc-fusion proteins were purchased from Sino Biological Inc. PD-L1_ECD/Fc (9 ng per well) were immobilized onto 96-well assay plat by incubating overnight at 4° C. Nonspecific binding sites were blocked using 5% skim milk in PBS for one hour at room temperature. After washing plates three times with PBST, indicated concentrations of anti-PD-L1 antibodies and HLX01 (negative control) were incubated with the immobilized proteins for one hour at room temperature. The plates were washed three times with PBST and then incubated for one hour at room temperature with peroxidase-labeled goat anti-human IgG F(ab)′2 (Jackson ImmunoResearch Laboratories) diluted 1/10,000 in PBS. After washing, plates were developed using TMB (eBioscience). The absorbance was read at the wavelength of 450 nm by Varioskan LUX microplate reader (Thermo Scientific).
HLX01 (anti-CD20 mAb) was used as the negative control.

[10] = target: T1, human PD-L1 on cells (PHA-activated …); experiment: flow cytometry on PHA-activated human T cells, biotin-labeled anti-human IgG Fcγ and streptavidin-PE, MFI
[11] = target: T2, human PD-L1 ECD-His; experiment: SPR, hPD-L1-His, comparison of IgG isotypes of PL2#3
[12] = target: T2, human PD-L1 ECD-His; experiment: SPR, ratio of KD to ref-1
[13] = target: T1, human PD-L1 on cells (PHA-activated …); experiment: flow cytometry on PHA-activated human CD3+ T cells, FITC-labeled anti-human IgG Fcγ, MFI
Description: Human T cells were isolated from PBMC using MagniSortTM Human T Cell Enrichment Kit (eBioscience). Isolated T cells were activated by 5 μg/mL phytohemagglutinin (PHA) for 3 days to stimulate the PD-L1 expression. Activated T cells were collected and incubated in FACS buffer (PBS with 2% FBS) with human Fc blocker (eBioscience) for 20 minutes at 4° C. Binding of anti-PD-L1 monoclonal antibody was assessed by incubating the activated T cells with the serial-diluted antibodies in FACS buffer. The cells were washed with flow buffer and the binding was detected with a FITC-labeled rabbit anti-human IgG FcγAb. Cells were also stained with mouse anti-human CD3 PE-Cy7 (eBioscience) for gating CD3-positive T cells. Flow cytometric analyses were performed using the Cytomics FC 500 (Beckman Coulter Inc.).

[14] = target: T1, human PD-L1 on cells (PHA-activated …); experiment: flow cytometry blocking assay: PD-L1 expressing CHO-S cells incubated with antibody, then biotin-labeled PD-1-Fc and streptavidin-PE; MFI of bound PD-1
Description: PD-L1 expressing CHO-S cells were suspended in FACS buffer (PBS with 4% FBS). Various concentrations of tested antibodies were added to the cell suspension (3.5E5 cells/well) and incubated at 4° C. for 30 minutes. […] The cells were washed and then stained with streptavidin-PE at 4° C. for 30 minutes. Flow cytometric analyses were performed using the Cytomics FC 500 (Beckman Coulter Inc.).
Anti-PD-L1 reference antibody and Avastin were used as the positive and negative control, respectively.

Binder	EC50 (read off the curve) [1] [µg/mL]	Fold Difference (against parental variant) [2] [fold]	Kd [3] [nM]	koff [3] [s⁻¹]	kon [3] [M⁻¹ s⁻¹]	EC50 (read off the curve) [4] [µg/mL]	EC50 (read off the curve) [5] [µg/mL]	binding result [6]	Kd [7] [nM]	koff [7] [s⁻¹]	kon [7] [M⁻¹ s⁻¹]	Improvement over ref-1 [8] [fold]	EC50 (read off the curve) [9] [µg/mL]	EC50 (read off the curve) [10] [µg/mL]	Kd [11] [nM]	koff [11] [s⁻¹]	kon [11] [M⁻¹ s⁻¹]	Improvement over ref-1 [12] [fold]	EC50 (read off the curve) [13] [µg/mL]	IC50 (read off the curve) [14] [µg/mL]
B1	~0.2	1.48	0.417	0.000162	384000	–	–	–	–	–	–	–	–	–	–	–	–	–	–	–
B2	~0.2	1.68	0.369	0.000151	415000	–	–	–	–	–	–	–	–	–	–	–	–	–	–	–
B3	~0.2	1.74	0.356	0.000176	506000	–	–	–	–	–	–	–	–	–	–	–	–	–	–	–
B4	~0.2	1	0.619	0.000207	328000	~0.02	~0.01	no binding (tested: 5 µg/mL)	0.538	0.000201	419000	4.57	~0.05	–	–	–	–	–	–	–
B5	–	–	–	–	–	~0.008	~0.001	–	0.772	0.000228	307000	3.19	~0.05	~0.004	–	–	–	–	–	–
B6	–	–	–	–	–	~0.01	~0.002	no binding (tested: 5 µg/mL)	2.46	0.000561	221000	1	~0.03	~0.003	0.221	0.000286	1.33e+06	2.86	–	–
B7	–	–	–	–	–	~0.01	~0.002	–	–	–	–	–	–	~0.004	–	–	–	–	~0.005	~0.2
